The text below walks through data of paper PMC11774494.

The target in this assay is 17b (CD4-induced human monoclonal antibody). Put plainly: flow cytometry of transfected 293T cells: staining with 10 μg/ml 17b with or without sCD4-183, detection with APC anti-human IgG F(ab')2, arithmetic mean APC fluorescence of live (propidium iodide negative) single cells; 'All titrations …. The settings on record: sCD4-183 at 0, 0.078125, 0.3125, 1.25, 5, 20, 80 μM (row value in value_extra.sCD4_183_uM), 20 min staining at room temperature, CAUTION: 17b staining of cell-surface trimers with sCD4, mostly reports trimer opening, normalized per Env, one titration each. Higher = more 17b staining of cell-surface Env. 17b's epitope is exposed, numbering: unknown, sequence starts at 1. For orientation: In flow cytometry, cells or beads pass a laser one at a time.

The mark [1] stands for this setting: AUC over sCD4-183 0-80 μM, parent: 0.907, scale: area under the normalized MFI curve, log10 x-axis.
Setting [2] is: sCD4-183 0 μM, parent: 0.0187, scale: normalized MFI.
The mark [3] stands for this setting: sCD4-183 0.078125 μM, parent: 0.0465, scale: normalized MFI.
[4] abbreviates: sCD4-183 0.3125 μM, parent: 0.0578, scale: normalized MFI.
Where [5] appears, read: sCD4-183 1.25 μM, parent: 0.0973, scale: normalized MFI.
[6] abbreviates: sCD4-183 5 μM, parent: 0.198, scale: normalized MFI.
Where [7] appears, read: sCD4-183 20 μM, parent: 0.585, scale: normalized MFI.
Where [8] appears, read: sCD4-183 80 μM, parent: 1, scale: normalized MFI.

On to “HIV-1 JR-CSF envelope glycoprotein gp160 (Env), P20871 JR-CSF_Y318A”, for which the screen value was 2.53 under setting [1]; 0.234 under setting [2]; 0.39 under setting [3]; 0.538 under setting [4]; 0.703 under setting [5]; 0.901 under setting [6]. The screen value was determined as 0.923 under setting [7] and 1 under setting [8].
As for “HIV-1 JR-CSF envelope glycoprotein gp160 (Env), P20871 JR-CSF_N332A”, the screen value worked out at 1.33 under setting [1]; 0.0498 under setting [2]; 0.0842 under setting [3]; 0.124 under setting [4]; 0.2 under setting [5]; 0.456 under setting [6]. Further, the screen value was determined as 0.802 under setting [7] and 1 under setting [8].
“HIV-1 JR-CSF envelope glycoprotein gp160 (Env), P20871 JR-CSF_K305A”: the screen value worked out at 2.6 under setting [1]; 0.182 under setting [2]; 0.383 under setting [3]; 0.554 under setting [4]; 0.754 under setting [5]; 0.935 under setting [6]. Besides, the screen value is, setting by setting: under setting [7], 1; under setting [8], 0.978.
Turning to “HIV-1 JR-CSF envelope glycoprotein gp160 (Env), P20871 JR-CSF_E172A”, the screen value is, setting by setting: under setting [2], 0.0468; under setting [3], 0.104; under setting [4], 0.136; under setting [5], 0.175; under setting [6], 0.305; under setting [7], 0.636. The screen value under setting [8] was found to be 1.
For the substance “HIV-1 JR-CSF envelope glycoprotein gp160 (Env), P20871 JR-CSF_Y384A”, the screen value under setting [2] came to 0.03; the screen value under setting [3] amounted to 0.141; the screen value under setting [4] is 0.264; the screen value under setting [5] was determined as 0.357; the screen value under setting [6] is 0.491; the screen value under setting [7] was 0.712. The screen value under setting [8] came to 1.
Consider “HIV-1 JR-CSF envelope glycoprotein gp160 (Env), P20871 JR-CSF_N197K”, for which the screen value by setting is: under setting [1], 2.29; under setting [2], 0.116; under setting [3], 0.231; under setting [4], 0.402; under setting [5], 0.643; under setting [6], 0.91. In addition, the screen value under setting [7] turned out to be 1 and the screen value under setting [8] was 0.993.
With “HIV-1 JR-CSF envelope glycoprotein gp160 (Env), P20871 JR-CSF_T303A”, the screen value reads like this: under setting [1], 2.51; under setting [2], 0.128; under setting [3], 0.303; under setting [4], 0.493; under setting [5], 0.793; under setting [6], 0.976. In addition, the screen value reads like this: under setting [7], 1; under setting [8], 0.93.
Take “HIV-1 JR-CSF envelope glycoprotein gp160 (Env), P20871 JR-CSF_S199A”: the screen value turned out to be 2.18 under setting [1]; 0.0532 under setting [2]; 0.183 under setting [3]; 0.348 under setting [4]; 0.593 under setting [5]; 0.931 under setting [6]. The screen value by setting is: under setting [7], 0.997; under setting [8], 1.
Turning to “HIV-1 JR-CSF envelope glycoprotein gp160 (Env), P20871 JR-CSF_T202A”, the screen value was found to be 2.71 under setting [1]; 0.144 under setting [2]; 0.403 under setting [3]; 0.617 under setting [4]; 0.843 under setting [5]; 1 under setting [6]. Moreover, the screen value was 0.973 under setting [7] and 0.97 under setting [8].
Take “HIV-1 JR-CSF envelope glycoprotein gp160 (Env), P20871 JR-CSF_P470A”: the screen value came to 1.6 under setting [1]; 0.119 under setting [2]; 0.215 under setting [3]; 0.298 under setting [4]; 0.381 under setting [5]; 0.492 under setting [6]. For the same substance, the screen value was 0.645 under setting [7] and 1 under setting [8].
Take “HIV-1 JR-CSF envelope glycoprotein gp160 (Env), P20871 JR-CSF_V127A”: the screen value under setting [1] came to 2.51; the screen value under setting [2] was determined as 0.217; the screen value under setting [3] turned out to be 0.347; the screen value under setting [4] is 0.491; the screen value under setting [5] came out at 0.715; the screen value under setting [6] stood at 0.915. The screen value was 1 under setting [7] and 0.951 under setting [8].
